According to PMC7969015 (Nucleic Acids Research, 2021):

What was measured:
Experiment in all cases: SEC
[1] = target: hGTPBP3 G domain (G249-P426) (human)
[2] = target: hGTPBP3 G domain A322P (human)
[3] = target: hGTPBP3 G domain P257H (human)
[4] = target: hGTPBP3 G domain ΔG312-V319 (human)
[5] = target: mature hGTPBP3 (hGTPBP3-ΔN20, T21-K492) (human)
[6] = target: ΔN-hGTPBP3 (N154-K492) (human)
[7] = target: the molecule itself

“hGTPBP3 G domain (G249-P426) (domain or fragment)” was tested, and the stoichiometry N [1] was 2.

Molecule “hGTPBP3 G domain A322P (domain or fragment)” has a stoichiometry N [2] of 2.

With “hGTPBP3 G domain P257H (domain or fragment)” the stoichiometry N [3] was 2.

“hGTPBP3 G domain ΔG312-V319 (domain or fragment)” was tested, and the stoichiometry N [4] was 2.

In the case of “mature hGTPBP3 (hGTPBP3-ΔN20, T21-K492) (enzyme)”, the stoichiometry N [5] is reported as 2.

“ΔN-hGTPBP3 (N154-K492) (domain or fragment)” gave a stoichiometry N [6] of 2.

B1: EcMnmE G domain (G216-G384) (domain or fragment, Escherichia coli, UniProt P25522 216-384, looked up)
chain: GMKVVIAGRPNAGKSSLLNALAGREAAIVTDIAGTTRDVLREHIHIDGMPLHIIDTAGLREASDEVERIGIERAWQEIEQADRVLFMVDGTTTDAVDPAEIWPEFIARLPAKLPITVVRNKADITGETLGMSEVNGHALIRLSARTGEGVDVLRNHLKQSMGFDTNMEG
B1 was tested, and the “stoichiometry N” value [7] was 2.
